Results published in US20130195866A1, “METHODS TO INHIBIT NEURODEGENERATION” (priority 2010, published 2013).

Target: human amyloid β (Aβ) peptides secreted into the medium of Tg2576 neuron cultures (Aβ40, Aβ42 and their oligomers) (human) (UniProt P05067)
Assay: cell-based or functional assay

Chain of human amyloid β (Aβ) peptides secreted into the medium of Tg2576 neuron cultures (Aβ40, Aβ42 and their oligomers) (human) (P05067 672-713 limits assumed): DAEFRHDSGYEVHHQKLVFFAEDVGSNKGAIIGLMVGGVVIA

3D6 antibody, a high-titer monoclonal Aβ antibody
[Ca2+]i of wild-type neurons treated with TgCM depleted with 3D6 (Indo-1): 98 nM
